Consider one molecule from patent publication US20070116750A1, “Compositions for disrupting and inhibiting reconstitution of wound biofilm” (priority 2005, published 2007).

Entries after “also recorded” stand apart in the source; their conditions may differ.

One test deals with chronic wound biofilm. The experiment in a line: Topical treatment of patients' chronic/non-healing wounds in the clinic (case reports and clinical experience). The following applies: for wound healing outcome: topical application with debridement and other wound care. Format: in vivo, human. The source says:
The composition is preferably applied following wound debridement. Although biofilm bacteria cannot be completely eradicated from the wound area by debridement, decreasing biofilm mass and providing increased exposure of the debrided tissue and remaining biofilm bacteria to the inventive compositions increases wound healing. […] It is therefore of benefit to debride the slough from the wound as completely as possible. Debridement can be performed by surgical, mechanical, autolytic, enzymatic, or a combination of means known to those of skill in the art of wound care. Furthermore, standard gauze dressings to pack or cover the wound will preferably be avoided, since those dressings may enhance biofilm formation or reconstitution in the wound. If used, such dressings may, however, be coated or impregnated with a composition of the present invention to decrease the biofilm-enhancing properties of a gauze dressing.
Topical wound care compositions may comprise about 2 to about 200 mg of MDPP or MDPP-A per cubic centimeter of total composition. In one embodiment, a composition comprises about 20 to about 200 mg of MDPP or MDPP-A, provided as Bioferrino®1000 or Bioferrin®2000, per cubic centimeter of total composition and about 1 to about 50, or in some embodiments about 5 to about 20, percent (w/v) xylitol. In one embodiment, this composition may be admixed into a methylcellulose/gelatin gel. This composition can be applied, in an amount of about ½ to about 5 cc of protein isolate/xylitol composition to each one square centimeter of wound area, to a freshly debrided chronic wound after the slough has been removed.
Xylitol (one-, two-, three-, four-, and five-xypentane hydro from Spectrum Chemical) comprised the second active ingredient, and was present at a concentration of 5% by weight of the mixture. The base gel of the composition comprised methylcellulose (0.023 gm/cc), gelatin (0.013 gm/cc) and sterile water.

In the next test the test system is oral ulcers. The following applies: hamsters; cited from earlier work.
The subject of a further test is P. aeruginosa. The note with it: in vitro; cited from earlier work.
In another test the test system is Streptococcus mutans. The note with it: lactoferrin and iron depletion; cited from earlier work.
Setting [1] is: individual patient case reports.

B1: lactoferrin: iron-binding glycoprotein, 75,000-80,000 Daltons; in Examples 2-11 applied as Bioferrin with xylitol in gel (protein, UniProt P24627 20-708, looked up)
Lactotransferrin: APRKNVRWCTISQPEWFKCRRWQWRMKKLGAPSITCVRRAFALECIRAIAEKKADAVTLDGGMVFEAGRDPYKLRPVAAEIYGTKESPQTHYYAVAVVKKGSNFQLDQLQGRKSCHTGLGRSAGWIIPMGILRPYLSWTESLEPLQGAVAKFFSASCVPCIDRQAYPNLCQLCKGEGENQCACSSREPYFGYSGAFKCLQDGAGDVAFVKETTVFENLPEKADRDQYELLCLNNSRAPVDAFKECHLAQVPSHAVVARSVDGKEDLIWKLLSKAQEKFGKNKSRSFQLFGSPPGQRDLLFKDSALGFLRIPSKVDSALYLGSRYLTTLKNLRETAEEVKARYTRVVWCAVGPEEQKKCQQWSQQSGQNVTCATASTTDDCIVLVLKGEADALNLDGGYIYTAGKCGLVPVLAENRKSSKHSSLDCVLRPTEGYLAVAVVKKANEGLTWNSLKDKKSCHTAVDRTAGWNIPMGLIVNQTGSCAFDEFFSQSCAPGADPKSRLCALCAGDDQGLDKCVPNSKEKYYGYTGAFRCLAEDVGDVAFVKNDTVWENTNGESTADWAKNLNREDFRLLCLDGTRKPVTEAQSCHLAVAPNHAVVSRSDRAAHVKQVLLHQQALFGKNGKNCPDKFCLFKSETKNLLFNDNTECLAKLGGRPTYEEYLGTEYVTAIANLKKCSTSPLLEACAFLTR
B1: in the test on chronic wound biofilm (chronic wounds after debridement, comparative statements), the “inhibition of biofilm reconstitution / response of wounds, clinical experience” value was “inhibits reconstitution of an existing biofilm in a chronic wound”. Also, the “slough (biofilm) in the wound bed during therapy” value with chronic wound biofilm (setting [1]) was “no evidence of slough”. The wound healing outcome in the test on chronic wound biofilm (setting [1]) is “the wound healed; also recorded: almost completely healed”; in the test on chronic wound biofilm (individual patient case reports, listed as Lactoferrin), “complete healing of their wound”. Moreover, in the test on chronic wound biofilm (patients with venous leg wounds), the “time to complete healing / closure of wound” value came to 5 weeks. Further, the “efficacy for treating oral ulcers” value in the test with oral ulcers is “not effective”. Further, the “effect on biofilm formation” value is on record as “block biofilm formation” in the test with P. aeruginosa and “stimulate biofilm formation” with Streptococcus mutans.
